Test: soluble on expression in E. coli; label from the status in PepcDB or PDB records

Sequence | soluble on expression in E. coli
MSLDKGTVDGRLYQLFKTCIQGINSPLSSVALRSDFYILANHYLSRVLSDQVGSEKVLQDLRLGSKKLVEIIWNDVVYGEGTSRVTGILLLDSLIQLANRSKENFILDSLMKTTRLLLIIRSLKNTDALLNSTTEHINIDDLLYELTAFKATVFFLIRVAETRGGASALIENNLFRIIAELSFLKVDPDLGLDLMFDEVYVQNSKFLKVNVTLDNPLLVDKDANGVSLFELIVPIFQLISAVLVSMGSSNKAVVQTVKGLLNTYKRLVIGIFKRDLLREKEDKKNSSDPNNQSLNEMVKLIVMLCTLTGYQNNDEGHHHHHH | not soluble
MSLDKRLFLDPDTAIERLQRLQQALEMGVSSLMALVTTDWRCYGYMERHINEIRTAVDKVELFLKEYLHFVKGAVANAACLPELILHNKMKRELQRVEDSHQILSQTSHDLNECSWSLNILAINKPQNKCDDLDRFVMVAKTVPDDAKQLTTTINTNAEALFRPGPGSLHLKNGPESIMNSTEYPHGGSQGQLLHPGDHKAQAHNKALPPGLSKEQAPDCSSSDGSERSWMDDYDYVHLQGKEEFERQQKELLEKENIMKQNKMQLEHHQLSQFQLLEQEITKPVENDISKWKPSQSLPTTNSGVSAQDRQLLCFYYDQCETHFISLLNAIDALFSCVSSAQPPRIFVAHSKFVILSAHKLVFIGDTLTRQVTAQDIRNKVMNSSNQLCEQLKTIVMATKMAALHYPSTTALQEMVHQVTDLSRNAQLFKRSLLEMATEGHHHHHH | soluble
MSLDLFRSEPVAQPLAARLRPANLDEYVGQEHLLARGKPLREALEQGALHSMIFWGPPGVGKTTLARLLAQVSDAHFETISAVLSGVKEIRQAVEVAKQHAAQYGRRTILFVDEVHRFNKSQQDAFLPYVEDGTLIFIGATTENPSFELNNALLSRARVYVLKSLDEAALRKLVGRALNEDKGLGKRKLRLPEESFQVLLAAADGDGRRLLNLLENAADLAEDGSEISPELLQNLLGDTRRRFDKGGEAFYDQISALHKSVRGSNPDAALYWFARMLDGGCDPLYIARRVVRMASEEVGNADPRALGLCLSAWDVQERLGSPEGELAVAQAIVYLACAPKSNAVYSAFNAAMRDVAESGSREVPLHLRNAPTKLMKSLGYGEEYRYAHDEPDAYAAGEDYFPEDLEPRRYYQPVPRGLELKIRDKLEHLAELDRTSPRQREGHHHHHH | soluble
MSLDLQEKVRVAAEAVKHADAIVMTAGAGMGVDSGLPDFRGDTGFWKAYPPYQKLGITFVGAANPDHFERDPSFGWGFYGHRTNLYRATVPHAGFDILREWVQRYGLDYFVVTSNVDGQFQKAGFADDRILEVHGSIHHLQCTTPCTMAIWENRETIPVDEATMRAGHVPRCIHCGAVARPNILMFGDYGWVSDRSARQQRNFDEFLADTRGGRLVVVEMGAGTAIPTIRYLTEELGSRSEALAVRINPREPQIRAPHLSLPCGAREGVAAINAVLAEESEGHHHHHH | soluble
MSLDPSKVTSMSAVEFTPLPTCLQHRSCDACMSSDLTFNCSWCHVLQRCSSGFDRYRQEWMDYGCAQEAEGRMCEDFQDEGHHHHHH | not soluble
MSLDQREILQKFLDEAQSKKITKEEFANEFLKLKRQSTKYKADKTYPTTVAEKPKNIKKNRYKDILPYDYSRVELSLITSDEDSSYINANFIKGVYGPKAYIATQGPLSTTLLDFWRMIWEYSVLIIGMACMEYEMGKKKCERYWAEPVEMQLEFGPFSVSCEAEKRKSDYIIRTLKVKFNSETRTIYQFHYKNWPDHDVPSSIDPILELIWDVRCYQEDDSVPICIHCSAGCGRTGVICAIDYTWMLLKDGIIPENFSVFSLIREMRTQRPSLVQTQEQYELVYNAVLELFKRQMDVIRDKHSGTESQAKEGHHHHHH | soluble
MSLDRASHLKMSSEERRAHRDGTVWQLYEWQQRQQFRHGSPTAPICLGSPEFTDQGRSRSMLEVPRSISVPPSPSDIPPPGPPRVFPPRRPHTPAERVTVKPPDQRRSVDISLGDSPRRARGHAVKNSSHVDRRSMPSMGYMTHTVSAPSLHGKSADDTYLQLKKDLEYLDLKMTGRDLLKDRSLKPVKIAESDTDVKLSIFCEQDRVLQDLEDKIRALKENKDQLESVLEVLHRQMEQYRDQPQHLEKIAYQQKLLQEDLVHIRAELSRESTEMENAWNEYLKLENDVEQLKQTLQEQHRRAFFFQEKSQIQKDLWRIEDVTAGLSANKENFRILVESVKNPERKTVPLFPHEGHHHHHH | soluble
MSLDRVDRDILRILHAKGRLPVVELAKLVNLTTSPCSERVKRLEKEGYIRGYHADLDPGKLGLDVQVFIHIRLDQSSFSIFERFAHAVADIPEIEACYSLSGDFDTMIKVRVKDMKAYQAFMSGKLGSLPGVIQTRSEFVIEEHKTSFGINPELIYSLPS | not soluble
MSLDSGRNGGGPSVFRRDLLRSIGAAGLAGLAGCGGSEGVTDGDGTPAPTPVGNFPVSGDSVTFGFNVASSGAYSTAGKQEIRGFKLAVKHINNGGGWVTSEKYNSPLDGDGLLGKDVEFVVEDTGGSSDTARSNAQRLVDGEEVIMLAGGTSSSAGLANQEVAAQNQVIYMATMANTNSLTGADCNRYSFREMFNNHMAAEALAPALSDEFGKNANYVKIFQDNDWGQTLRDDMDAALGNVGWAPVWDTTAQVGTSDYSQYAADIKSVDFDVIVLGLGGLDAVNALRAFRDEFPESNIVLPMASREIAETAGGAIEGVIGTVAWSRAINSPLSNTFRETFREEYGSSTGSSKSAAPSGAAHIAYTQALQYASAVERAGTFNPIDVIGALEGHEYDAGLGPQTLRACDHQAMRQVPVVRGKSEIQQSYGTYYDLIGEPADVQYACDSGPAANCSLGGSEGHHHHHH | not soluble
MSLDTYTTSEVADLIGVHPNTVRLYEELNLIPKPKRNTNGYRIFNDFHIEQFRFARTALKIEVVQRGLRKDALEIVRTSANRDFDKAISLVNQYLQQLEIEKSNAEEALTIVAQILNGNTPETNKLFLTRKETAEHLNEGHHHHHH | not soluble
MSLDVLSVSEINAQIKALLEATFLQVRVQGEVSNLTIHKVSGHAYFSLKDSQSVIKCVLFKGNANRLKFALKEGQEVVVFGGISVYVPRGDYQINCFEIEPKDIGSLTLALEQLKEKLRLKGYFDEENKLPKPHFPKRVAVITSQNSAAWADMKKIASKRWPMCELVCINTLMQGEGCVQSVVESIVYADSFHDTKNAFDAIVVARGGGSMEDLYSFNDEKIADALYLAKTFSMSAIGHESDFLLSDLVADLRASTPSNAMEILLPSSDEWLQRLDGFNVKLHRSFKTLLHQKKAHLEHLVASLKRLSFENKHHLNALKLEKLKIALENKTLEFLRFKKTLLEKISTQTLTSPFLQTKTERLNRLENALKLAHANLKLPQFGALVSKNNQAIELEALKRGDKIELSNEKTRASAEILSVDRVEGHHHHHH | soluble
MSLEAAPAGSGPLRRTFLVPEIKSLDQYDFSRAKAAASLAWVLRAAFGGAEHVPPELWEPFYTDQYAQEHVKPPVTRLLLSAELYCRAWRQALPQLEPSPSPSALLALLARRGTVPSLPEHPVREADLKHQPILMGAHLAVIDALMVAFSFEWTKTLPGPLALSSLEHKLLFWVDTTVRRLQEKTEQEAAQRASPAAPLDGASPAQPSIRYRKDRAIARRAPCFPNVTTLQDLASGAALAATIHCYCPQLLRLEEVCLKDPMSVADSLYNLQLVQDFCASHLPRGCPLSLEDLLYVPPPLKVNLVVLLAEMYMCFEVLKPDFVQAKDLPDGHAVSPRNTETVPSQNNSGSSSSPSRLPGSRERDWENGSNASSPASVPEYTGPRLYKEPSAKSNKFIIHNALSHCCLAGKVNEPQKNRILEEIEKSKANHFLILFRDSSCQFRALYTLSGETEELSRLAGYGPRTVTPAMVEGIYKYNSDRKRFTQIPAKTMSMSVDAFTIQGHLWQSKKPTTPKKGGGTPKEGHHHHHH | soluble
MSLEAKKDMGRCLWELKDEIDHVDRYCHDLAAWDDLHAFIKAPNADFLKINLNADTILDNEVSFICIVDRSGQLLFAEDWDLHRKEKTVLTTLPDSLRSVASLPFSSESDKDDLSNMKRVGIYNSSRGPMMLSSRPIITSNQQGPVQGAVIIGRLLDQGSLDAMMVRVALNFRFIDMSGDELTAKEKKILGELAVEEISIVERENSDNLEVYSHLADIGGRYLIQAEIPKHILQREGHHHHHH | soluble
MSLEDSEQIQILQHLISINSVNDHEADVAAYIQQLFADHGITSQVIPYADGRANIIAEIGDTTSDQVFALAGHLDTVATGDVADWKFDPFSAHIVDNQLYGRGAADMKSGLAAMVITLINLADQQTPLTGRLRFIGTVGEENGAMGSRMLTEKGVADDLTAMVIGEPTGGNLVYAHNGSLNYHVYSRGVGAHSSMPEKGINAITNLIKYVTAEATAFDDAPVSPELGPLVHSVTVFNGGEQVNSIPAKAELQGNIRPIPEFDNTAVIHRLHETVDRLNQEPGVDLALHVDYSFKPIISAKDSPLVQTTKAIADQEFGHAIDLQVIHGATDASEFTKSSHDFPVIVYGAGKWDAAHALNESVDLDEFRHVQHVYQQLVEKFLSEGHHHHHH | soluble
MSLEGYSVLVLERHYRAGGYAHSFRRRKFIFDSAVRIAAGAMDGGLLEELLQEAGVSQDVEFLHLEDIYTAYYPNRKITVKGSVEGLIEAYCEEFPHECHNIRALVQEMEKLYEVTLMLLHSGDPLKVLSNPLMLKYRDKSFHDLTSSFLQDPQAIHSFAALWAYYGTPPTQGSAMFFAYAIMSYFKEDIYYAKGSFQSLADAFVKRIESLGGEVCLRNEVQRVEVEDRQIKGVHLQTGEYVEAEKVVCNGDFLKLVQHLVGEEHFPARYLKRISKLKPSISAFEVFLGVDLPLEKQGLSHETFIYNDYDYDLFMEKHQSLGEIGASGLSGLAISIPSLVDSSLAPEGMHTAILTTLVPYDIGCDWKEKKEDYQDQLIKMAERAIPNLGRHAVHVESGTPLTMERYTNNSFGSIYGWEQTKNQMTGRPQHETPIKGLYLSGQWTDPGGGIVSAILSGYKLRKKIMKEQVVMEGHHHHHH | not soluble
MSLEHFDDKSQLKRNGFYFSYNVDKENIEHWISAILFQVLKDKEDIVILSLGVDTLVGDSLGPLVGSILKRNGIPNVYGTLDRTVNASNIIKILDEIHERFKNPYILVVDAAVTAENNINDIVLRNGGFTPGFGVYRQLPTVGDFSLVGVVNKEDEREHNLIELLKKCRFDEVLKLARIISKILVLTFARMNKGDKEGHHHHHH | not soluble
MSLEHILLPLDLSEVSKPLAISVAELASRHKSRVTLLHVIEEAMVIHVAAGYDVSSLIRSIEKNAREKLDKIKKLMMEKGANVVVYEDIPVGNPGTVISEVAEEVGATEIVMGSKGLGIFRILPLGSTVRETVKISRKPVIRLKTYKENGHVKVAYSPMLFRKILVGADRNTSKSMIDYAVNAASTDDGKVILAHIIEPPLEEPSYEVKNVFKYGEKAGEERGVEVEIVVARGRPDKMLTAIASQMDASSVLVGRTVERRLSELILGSTLDRLMTLCELPLIVYPLEGHHHHHH | soluble
MSLEKEYEYLVPPDDYLAAGVHIGTQIKTGDMKKFIFKVRQDGLYVLDIRKLDERIRVAAKFLSRYEPSKILLVAARQYAHKPVQMFSKVVGSDYIVGRFIPGTLTNPMLSEYREPEVVFVNDPAIDKQAVSEATAVGIPVVALCDSNNSSADVDLVIPTNNKGRRALAIVYWLLAREIAKIRGQDFTYSIEDFEAELEGGSHHHHHH | soluble
MSLEKVDFIKEDLIFSLLEKGKITDRNEIREILAKARECKGISLGEVAKLLYLEDEELLEELYDVAKYIKNKIYGKRVVLFAPLYTSNECTNNCLYCGFRHDNKELHRKTLSLEEIVEEAKAIERQGHKRLLLICGEDPRKTNVKHFTDAMEAIYKSTDIRRINVEAAPMTVEDYRELKKAGIGTYVIFQETYHRETYRIMHPVGKKANYDWRITAIDRAFEGGIDDVGVGALFGLYDYRFEVLGLLMHCMHFEEKYGVGPHTISVPRLRPALGAPLKEIPYKVTDKDFKKIVAIFRIAVPYTGIILSTRERAEFRDELLSVGVSQISAGSKTNPGGYQEDDDHADQFEISDNRSLPKVMETICQQGYIPSFCTACYRRCRTGEHFMEYAKAGDIHEFCQPNAILTFKENLMDYADEPLRKMGEEVILKALEEIEDEKMKTLTIAKLEEIEKGKRDIYFEGHHHHHH | soluble

From the DeepSol protein solubility set
